The assay has as its target Bluetongue virus serotype 1 (BTV-1) outer capsid protein VP2. Kind of assay: Co-IP with anti-NS3 antibody, densitometry of VP2 band. Particulars: parent: est. 1.0; read off a plot.

For the substance “Bluetongue virus serotype 1 (BTV-1) non-structural glycoprotein NS3, wild type K196A; K197A; E198A”, the ratio to parent (relative fold change) came to 0.56.
As to “Bluetongue virus serotype 1 (BTV-1) non-structural glycoprotein NS3, wild type N150A”, the ratio to parent (relative fold change) is 0.61.

These data come from article PMC12578325.
